The supplement of paper PMC10567573
± gives the standard deviation.

Experiment: protein stability index of a GFP-peptide fusion (GPS, HEK-293T) (PSI 1-6); higher = more stable
[1] = treatment: DMSO, c terminus: a fixed tail appended
[2] = treatment: MLN4924 1 uM, 8 h, c terminus: a fixed tail appended
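Further: 24-mer peptide tiles fused after GFP, lentivirally expressed, FACS-sorted into six equal bins by GFP/DsRed ratio, decoded by Illumina sequencing, PSI is the read-weighted mean bin number.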

Row | Sequence | protein stability index [1] | protein stability index [2] | protein stability index (treatment: DMSO, c terminus: native) | protein stability index (treatment: MLN4924 1 uM, 8 h, c terminus: native)
1 | TTEKQRLVKKLQDSVLERWVNDPQ [GOLPH3L] | 3.71 ± 0.25 | 4.05 ± 0.076 |  | 
2 | TVERPFYDLWASDNPLDRPLVGQD [NOP53] | 4.09 ± 0.37 | 4.2 ± 0.15 |  | 
3 | TWVPMFLSTLLAPYQALRLWARGT [SOAT2] | 2.81 ± 0.48 | 2.72 ± 0.64 |  | 
4 | TWYLKTIDICHDHFGWYLGWGDCV [DHCR7] | 3.01 ± 0.34 | 3.1 ± 0.53 |  | 
5 | TYLSKVDPDGKKIKQIQQLFEEIL [FBXO33] | 2.25 ± 0.24 | 1.84 ± 0.26 |  | 
6 | TYRSLLESEDCKLPCNPCATTNAS [KRT34] | 3.9 ± 0.25 | 4.09 ± 0.2 |  | 
7 | TYRSLLESEDCKLPSNPCATTNAC [KRT33B] | 3.99 ± 0.26 | 4.04 ± 0.072 |  | 
8 | VCRTEGTPHMLLDLSDLLQVDSLR [BRF1] | 2.31 ± 0.23 | 2.29 ± 0.3 |  | 
9 | VDENDSHEGEDQFLSLEASTETLV [DLC1] | 5.66 ± 0.16 | 5.56 ± 0.2 |  | 
10 | VDLFKQLCEKEPLGNVLFSPICLS [SERPINB5] | 1.98 ± 0.18 | 2.08 ± 0.41 |  | 
11 | VDRTHALMKKIGQCPMRVQKEVAG [CRYL1] | 3.45 ± 0.36 | 3.65 ± 0.35 |  | 
12 | VDWRRVSRLQEDPEGTENPLGVDE [SLA] | 4.46 ± 0.36 |  |  | 
13 | VERILARGENLEHLRNKTEDLEAT [VAMP8] | 5.33 ± 0.2 | 5.37 ± 0.14 |  | 
14 | VESSLDKVVLSDAYAHPQQKVAVY [TRADD] | 2.88 ± 0.29 | 3.26 ± 0.12 |  | 
15 | VFGVPLTVNVQRTGQPLPQSIQQA [DLC1] | 2.79 ± 0.2 | 3 ± 0.43 |  | 
16 | VFNAARDGKLRLLTKLLASKSKEE [FEM1C] | 2.48 ± 0.21 | 2.75 ± 0.3 |  | 
17 | VFVCRVSAVLFYVNMYVSIVFFGL [P2RY14] | 3.36 ± 0.33 | 3.35 ± 0.54 |  | 
18 | VFVLIDEVESLTAARNACRAGTEP [TRIP13] | 2.35 ± 0.2 | 2.63 ± 0.36 |  | 
19 | VGEFPIISPGRVYEYTSCTTFSTT [FBXO3] | 2.3 ± 0.22 | 2.33 ± 0.32 |  | 
20 | VGVDGVRAFLQTYSHEVSLTADSR [PCDHGA10] | 2.49 ± 0.37 | 2.61 ± 0.39 |  | 
21 | VHNAMDNYECNLYTFLYLVCISTK [FEM1B] | 2.82 ± 0.59 | 2.2 ± 0.53 |  | 
22 | VHRDLKPENLLLASKCKGAAVKLA [CAMK2B] | 2.83 ± 0.38 | 2.75 ± 0.25 |  | 
23 | VHRKSCSTGEAGTDGDHNVYPRPP [ZC2HC1C] | 4.29 ± 0.33 | 4.45 ± 0.37 |  | 

Row | Sequence | protein stability index [1] | protein stability index [2] | protein stability index (treatment: DMSO, c terminus: native) | protein stability index (treatment: MLN4924 1 uM, 8 h, c terminus: native)
24 | VILFSSAVYFAEADDPTSGFSSIP [KCNA3] | 3.01 ± 1.6 | 2.56 ± 1.1 |  | 
25 | VKGRVRCLTAGPEVAAQLPAVRQL [ZSWIM9] | 3.19 ± 0.18 | 3.12 ± 0.43 |  | 
26 | VKKKKEEGVIDSSDKEIVAEAERL [EIF5] | 5.04 ± 0.59 | 5.46 ± 0.2 |  | 
27 | VKLNVGGSLHYTTLRTLTGQDTML [KCTD13] | 2.45 ± 0.47 | 2.27 ± 0.28 |  | 
28 | VKLPLPAERVTLADFKGVLQRPSY [DVL3] | 2.5 ± 0.19 | 2.73 ± 0.36 |  | 
29 | VKYNSCADRPFSAPWWFWLSLTGV [POMT2] | 2.59 ± 0.35 | 2.72 ± 0.6 |  | 
30 | VLDILTRLPESVERLTGVSISQVN [FLOT1] | 2.43 ± 0.23 | 2.3 ± 0.48 |  | 
31 | VLEVTEESIDFDQGELADQDVDPV [FBXO33] | 5.34 ± 0.19 | 5.57 ± 0.2 |  | 
32 | VLFLDHVMYTIHMGCHGFRDPFEC [IKZF1] | 3 ± 0.26 | 2.96 ± 0.49 |  | 
33 | VLRGRLYAIAGYDGNSLLSSIECY [KLHL12] | 1.91 ± 0.14 | 2.28 ± 0.13 |  | 
34 | VLRTYLELVLCVLVSIRNNRNLQK [FBXO33] | 2.96 ± 0.71 | 2.64 ± 0.51 |  | 
35 | VPKDQRLQAIKAAIMLLPDENREV [DLC1] | 3.82 ± 0.18 | 3.85 ± 0.42 |  | 
36 | VQLATLAQRVKEVLPHVPLGVIQR [AUP1] | 2.51 ± 0.16 | 2.19 ± 0.29 |  | 
37 | VQSLQLSPRTRGSWSQPQPLKAPC [RASAL3] | 3.54 ± 0.41 | 3.68 ± 0.098 |  | 
38 | VQYLGQAPELLGGAEPGTYLTGTI [ADAMTS4] | 2.33 ± 0.7 | 2.98 ± 0.72 |  | 
39 | VRANDINYQDQIPRTLEEFVGFH [FEM1B] |  |  | 3.21 ± 0.16 | 3.2 ± 0.48
40 | VRENVPRVLNSAKEKSSTVPIPTV [SOAT1] | 4.161 ± 0.036 | 4.16 ± 0.14 |  | 
41 | VRKPAEAERYKLERLAEAEKSQLI [FLOT1] | 4.46 ± 0.26 | 4.49 ± 0.14 |  | 
42 | VSCGFGGGAGSGFGGGYGGGLGGG [KRT13] | 2.32 ± 0.35 | 2.2 ± 0.5 |  | 
43 | VSIIDTELKVKDSQPIDLSACTVA [TRIP13] | 3.28 ± 0.45 | 3.33 ± 0.29 |  | 
44 | VSITLLALVYLPGVIAAIVQLHNG [STEAP1] | 3.5 ± 0.33 | 3.11 ± 0.14 |  | 
45 | VSPPESPTVTTSWQSESLPVSLSA [BCL2L13] | 4.43 ± 0.08 | 4.37 ± 0.27 |  | 
46 | VSTVSHADADCFVCVFLSHGEGNH [CASP6] | 2.37 ± 0.2 | 2.18 ± 0.17 |  | 

Row | Sequence | protein stability index [1] | protein stability index [2] | protein stability index (treatment: DMSO, c terminus: native) | protein stability index (treatment: MLN4924 1 uM, 8 h, c terminus: native)
47 | VTFRDVAVDFTQEEWGQLDPTQRI [ZNF8] | 3.8 ± 0.36 | 3.82 ± 0.33 |  | 
48 | VTLLVALKVRYRERITILRGNHES [PPP2CA] | 2.78 ± 0.5 | 2.67 ± 0.44 |  | 
49 | VTVRVPTHEEGSYLFWEFATDNYD [ACBD3] | 2.19 ± 0.34 | 2.31 ± 0.62 |  | 
50 | VVEKLNLFLDLLQSYKDLCERHEK [SNX8] | 2.19 ± 0.32 | 2.23 ± 0.25 |  | 
51 | VVENAEKILGYLNTNVLSRDLIPP [SLC6A17] | 2.82 ± 0.15 | 2.84 ± 0.38 |  | 
52 | VVFPYTSKSCMRAVLEYLYTGMFT [RHOBTB2] | 2.81 ± 0.42 | 2.77 ± 1.1 |  | 
53 | VVTMTTVGYGDMHPVTIGGKIVGS [KCNA3] | 2.33 ± 0.4 | 2.37 ± 0.45 |  | 
54 | VVYSKAASVPKVETVKSDNKDDDI [EIF5] | 5.23 ± 0.13 | 5.19 ± 0.11 |  | 
55 | VWDASRAPRGTPDPGLGEGPALWL [PLEKHN1] | 2.74 ± 0.25 | 2.79 ± 0.38 |  | 
56 | VYKDGEHGEEQRITIEPGTSYRLQ [PTPRD] | 4.81 ± 0.15 | 5.03 ± 0.16 |  | 
57 | VYSQASTMSIPVAMETDGPLFEDV [PPP2R5C] | 3.94 ± 0.31 | 4.14 ± 0.15 |  | 
58 | VYTGKLLLNLVDHTEVVRDLTFAP [WSB1] | 2.2 ± 0.28 | 2.36 ± 0.35 |  | 
59 | WALLCLGLLLPGGGAAWSIGAAPF [EMID1] | 3.54 ± 0.26 | 3.22 ± 0.19 |  | 
60 | WCLHVNNWLQVSFTAKHANKVKVL [FSD1] | 3.04 ± 0.73 | 2.93 ± 0.5 |  | 
61 | WDMNSAPRLVSETAERKQEQKTGT [MFSD9] | 5.44 ± 0.2 | 5.38 ± 0.13 |  | 
62 | WDPACLPLPPPPPAFKSMEVANFY [CEBPB] | 3.02 ± 0.28 | 3.28 ± 0.47 |  | 
63 | WEASSLGLVTAALHMVIVAAFTWA [KMT2E] | 3.44 ± 0.31 | 3.16 ± 0.74 |  | 
64 | WFQRQYLSTPDSQSLRCDLIRYIC [INTS3] | 2.25 ± 0.35 | 2.28 ± 0.44 |  | 
65 | WGPWGPWGDCSRTCGGGVQFSSRD [ADAMTS4] | 2.46 ± 0.36 | 2.16 ± 0.14 |  | 
66 | WKKQQKCDECGKIFSQSSALILHQ [ZNF396] | 2.54 ± 0.25 | 2.91 ± 0.49 |  | 
67 | WLLTHLLWFANAHLLSWFSPTIIF [DHCR7] | 3.36 ± 0.17 | 2.96 ± 0.3 |  | 
68 | WMHTPEALSKHFIPYNAKFLGSTE [GULP1] | 2.27 ± 0.12 | 2.3 ± 0.16 |  | 
69 | WSLGVIMYEMLIGYPPFCSETPQE [STK38L] | 2.85 ± 0.59 | 2.52 ± 0.44 |  | 

Row | Sequence | protein stability index [1] | protein stability index [2] | protein stability index (treatment: DMSO, c terminus: native) | protein stability index (treatment: MLN4924 1 uM, 8 h, c terminus: native)
70 | WSQPITTGKAPSPRAAHACATVGN [KLHDC2] | 3.84 ± 0.3 | 3.92 ± 0.2 |  | 
71 | WTMQAYERNFWDPSPQLDTQQEIK [WDR41] | 3.16 ± 0.19 | 3.46 ± 0.47 |  | 
72 | YAKKESDLNGAQIKLREYEAALNS [LMNB1] | 4.07 ± 0.2 | 4.07 ± 0.3 |  | 
73 | YARYSLKSIDPVLMAPTCVFLASK [CCNC] | 2.16 ± 0.65 | 2 ± 0.3 |  | 
74 | YDFMNSAFSPIVILTERVSLPFKP [MIA2] | 2.22 ± 0.62 | 2.17 ± 0.18 |  | 
75 | YDPRFNSWIQLPPMQERRASFYAC [KLHL14] | 2.14 ± 0.27 | 2.22 ± 0.17 |  | 
76 | YDYPEEEQLSGAGYRVSAALEEAD [EID1] | 5.38 ± 0.31 | 5.22 ± 0.32 |  | 
77 | YEAGVLAFYDVTGGMSHLHTFRAT [TRIM14] | 2.47 ± 0.45 | 2.07 ± 0.45 |  | 
78 | YFLRGSLPWQGLKADTLKERYQKI [CSNK1G3] | 2.17 ± 0.14 | 2.14 ± 0.39 |  | 
79 | YHRETEGEEQSQYMHVGSCQHLSS [KCNA3] | 4.09 ± 0.32 | 4.71 ± 0.47 |  | 
80 | YICPDYQSYFKTIEDFQQKILLTK [KRT36] | 2.33 ± 0.59 | 2.13 ± 0.28 |  | 
81 | YIHFFHTVLKQIAPEYFEKNEPYL [DENND6A] | 1.96 ± 0.5 | 2.77 ± 0.53 |  | 
82 | YKFDPKTKRILTLQKANSWFNCRK [MMP1] | 2.67 ± 0.27 | 2.54 ± 0.28 |  | 
83 | YLTVKVWDLNMENRPIETYQVHDY [PPP2R2B] | 2.25 ± 0.032 | 2.31 ± 0.2 |  | 
84 | YNVYSTFQSHEPEFDYLKSLEIEE [PPP2R2B] | 3.86 ± 0.2 | 3.92 ± 0.26 |  | 
85 | YQQIKAGAYDFPSPEWDTVTPEAK [CAMK2B] | 3.89 ± 0.34 | 4.15 ± 0.32 |  | 
86 | YQQLKLEGPGEQETKLDLISKGEE [SLC29A1] | 5.25 ± 0.28 | 5.28 ± 0.13 |  | 
87 | YRAITSAYYRGAVGALLVYDIAKH [RAB11A] | 2.43 ± 0.51 | 2.16 ± 0.33 |  | 
88 | YRALLSGSNPPYLPFRDASFGNCT [CDC14A] | 2.44 ± 0.091 | 2.49 ± 0.17 |  | 
89 | YRSPEPDPYLSYRWKRRRSYSREH [CLK3] | 3.55 ± 0.33 | 3.71 ± 0.12 |  | 
